B1: Hairpin Ribozyme (parent)
chain: GUCCUCUUUCACGUGCGCGUGAAAGAGAGAAGUGAACCAGAGAAACACACGUUGUGGUAUAUUACCUGGUA

The variants in this series derive from B1. In words: self-cleavage, relative activity (ratio to wild type); higher = more cleavage; co-transcriptional.
For the variant C38G U62A, the self-cleavage was 0.127.

As to A36U G57C, the self-cleavage was found to be 0.172.

Consider C38U A61C, for which the self-cleavage came out at 0.197.

For the variant C38U A61G, the self-cleavage stood at 0.26.

For A36C G68U, the self-cleavage stood at 0.213.

Regarding A36C G68A, the self-cleavage came out at 0.193.

A36C G68C: the self-cleavage amounted to 0.153.

Turning to A36G A45U, the self-cleavage is 0.219.

Regarding A36G A45G, the self-cleavage was determined as 0.28.

Consider A36G C37U, for which the self-cleavage amounted to 0.0788.

As to C38U U58G, the self-cleavage is 0.447.

Regarding C37A U63A, the self-cleavage turned out to be 0.163.

Consider C37A U63C, for which the self-cleavage worked out at 0.131.

On to A36U G51U, for which the self-cleavage is 0.648.

Turning to A36G C66A, the self-cleavage turned out to be 0.0924.

A39C A44C: the self-cleavage was determined as 0.17.

Regarding C38U U62G, the self-cleavage came to 0.124.

For the variant C37G G68U, the self-cleavage was found to be 0.189.

Take C37G G40A: the self-cleavage worked out at 0.0652.

Turning to C37G C65G, the self-cleavage was 0.225.

Regarding A36G G40A, the self-cleavage was determined as 0.349.

As for A36G G40U, the self-cleavage is 0.0848.

With A36G G68C, the self-cleavage came to 0.211.

Regarding C37G A49C, the self-cleavage came to 0.348.

With C38A U60G, the self-cleavage stood at 0.218.

On to A39C C65A, for which the self-cleavage came to 0.233.

A39G A45U: the self-cleavage was found to be 0.111.

A39G A71G: the self-cleavage is 0.222.

As for A36U C37G, the self-cleavage was 0.149.

C37U A71C: the self-cleavage turned out to be 0.93.

As for C37U A71U, the self-cleavage turned out to be 0.557.

Consider C38U A44G, for which the self-cleavage stood at 0.0449.

As to C37A A45U, the self-cleavage came to 0.169.

With A36C U58A, the self-cleavage stood at 0.391.

With A36C U58C, the self-cleavage stood at 0.685.

As for C37A G42A, the self-cleavage came out at 0.124.

Regarding C38A U62C, the self-cleavage was found to be 0.0746.

In the case of A39G A43G, the self-cleavage came to 0.0922.

Regarding C38A G69C, the self-cleavage worked out at 0.168.

On to A39G C46A, for which the self-cleavage is 0.0818.

For the variant A39C U70C, the self-cleavage was determined as 0.247.

As for C37U U63G, the self-cleavage was 0.172.

Consider A36G G42U, for which the self-cleavage was found to be 0.227.

As for C38U C66G, the self-cleavage stood at 0.255.

In the case of A36C C66G, the self-cleavage came to 0.131.

As for A36G G51U, the self-cleavage is 0.97.

Regarding A36C U70C, the self-cleavage came to 0.607.

Regarding C37U U67C, the self-cleavage worked out at 0.142.

On to C37U U67G, for which the self-cleavage is 0.234.

For A36U G56U, the self-cleavage came out at 0.21.

Take C38G C65U: the self-cleavage worked out at 0.0351.

Take C38G A39C: the self-cleavage came to 0.146.

For C38G A39G, the self-cleavage was 0.117.

Turning to C37G U53A, the self-cleavage stood at 0.245.

In the case of C38U G40A, the self-cleavage came to 0.203.

For the variant A36G G56U, the self-cleavage came out at 0.183.

For C38A G42U, the self-cleavage was 0.112.

With C38A G42C, the self-cleavage was found to be 0.0881.

On to C38G U67A, for which the self-cleavage is 0.224.

C38G U70C: the self-cleavage is 0.157.

For the variant C37G A39C, the self-cleavage worked out at 0.163.

In the case of A36U U67G, the self-cleavage was determined as 0.177.

Turning to A36U U67A, the self-cleavage is 0.235.

As to C38A C65A, the self-cleavage came to 0.198.

C38A U55C: the self-cleavage was 0.116.

Consider C37U G42U, for which the self-cleavage amounted to 0.27.

In the case of C37A G69A, the self-cleavage worked out at 0.434.

Turning to C38A G40C, the self-cleavage worked out at 0.103.

For the variant C38A G40U, the self-cleavage turned out to be 0.23.

With C38G U63C, the self-cleavage was 0.178.

In the case of A36C U53G, the self-cleavage is 0.371.

Take A36C U53A: the self-cleavage is 0.635.

On to A36G U62C, for which the self-cleavage came to 0.328.

With A36C C50U, the self-cleavage was 0.222.

For the variant C38A C66A, the self-cleavage was 0.216.

As to C38A C66U, the self-cleavage worked out at 0.0169.

On to A36U U53G, for which the self-cleavage was 0.224.

Turning to C37G A64C, the self-cleavage came to 0.136.

As for C37G A64U, the self-cleavage came to 0.192.

Regarding C38A G51C, the self-cleavage was determined as 0.223.

C37G U52G: the self-cleavage worked out at 0.377.

A36G U58G: the self-cleavage was found to be 0.952.

In the case of C38G A43G, the self-cleavage turned out to be 0.171.

For the variant C37U A41U, the self-cleavage came to 0.969.

For C37A C48A, the self-cleavage came to 0.189.

With C37A G68A, the self-cleavage was found to be 0.302.

Regarding A36G A41U, the self-cleavage was found to be 1.31.

In the case of C38U A47U, the self-cleavage was found to be 0.151.

For A39C A71G, the self-cleavage came out at 0.248.

Regarding A39C A71U, the self-cleavage was determined as 0.136.

Regarding C38U A39U, the self-cleavage turned out to be 0.185.

As to C38U A39G, the self-cleavage was determined as 0.3.

For the variant A39C U67C, the self-cleavage worked out at 0.149.

In the case of C38A U58A, the self-cleavage stood at 0.211.

For C38U A49G, the self-cleavage was determined as 0.343.

Turning to C38U A49U, the self-cleavage is 0.137.

A39G A44G: the self-cleavage is 0.129.

With C37U C38U, the self-cleavage came to 0.201.

In the case of C37U C38G, the self-cleavage is 0.0604.

For the variant C37A U52A, the self-cleavage amounted to 0.484.

Take A39C A45G: the self-cleavage was 0.105.

For A36C G56C, the self-cleavage came out at 0.186.

For the variant A36C G56A, the self-cleavage worked out at 0.09.

As to A36C G56U, the self-cleavage is 0.216.

For the variant C37U A49U, the self-cleavage came out at 0.211.

As for A36U A41G, the self-cleavage was 0.476.

In the case of C38U U70A, the self-cleavage came to 0.522.

On to A39C C46A, for which the self-cleavage came to 0.191.

A39C C46U: the self-cleavage was determined as 0.103.

With A39C C46G, the self-cleavage was 0.13.

As to A36U C46U, the self-cleavage turned out to be 0.31.

Take C37U A59C: the self-cleavage stood at 0.162.

As for C37U A59G, the self-cleavage worked out at 0.152.

For A36G C46U, the self-cleavage was 0.189.

With C38U C50U, the self-cleavage worked out at 0.249.

For C37G A71G, the self-cleavage was 0.341.

Turning to C37A A47U, the self-cleavage was determined as 0.19.

As for C37A A47C, the self-cleavage came to 0.108.

On to C37U C46G, for which the self-cleavage is 0.13.

On to C37U C46A, for which the self-cleavage was found to be 0.121.

On to C38A A39G, for which the self-cleavage stood at 0.136.

As for C38A A39C, the self-cleavage was found to be 0.0755.

With A39C G51A, the self-cleavage was 0.751.

In the case of C37A G54U, the self-cleavage was 0.269.

In the case of C37A G54A, the self-cleavage was 0.187.

C37A G54C: the self-cleavage was 0.114.

For C37A C50G, the self-cleavage was found to be 0.128.

With C37A C50A, the self-cleavage is 0.124.

With C38U A43C, the self-cleavage is 0.0947.

Take A36U U70G: the self-cleavage was determined as 0.665.

Consider A36U U70C, for which the self-cleavage was found to be 0.473.

In the case of A36U U70A, the self-cleavage is 0.775.

On to A39C A41U, for which the self-cleavage was determined as 0.406.

With C37G C66A, the self-cleavage worked out at 0.207.

For the variant A36U A59U, the self-cleavage stood at 0.132.

As for C37A A64G, the self-cleavage was found to be 0.187.

On to C37U C48G, for which the self-cleavage turned out to be 0.0435.

Turning to C38U A59G, the self-cleavage came to 0.194.

A36U U55G: the self-cleavage was 0.163.

As for A36U U55C, the self-cleavage stood at 0.124.

With A36C C37G, the self-cleavage was 0.215.

On to A36G G69A, for which the self-cleavage was found to be 0.414.

With A36G G69U, the self-cleavage was determined as 0.237.

On to A36U U60G, for which the self-cleavage worked out at 0.246.

For A36U U60C, the self-cleavage was 0.804.

As to C37U A43G, the self-cleavage was found to be 0.146.

Turning to A36G A71G, the self-cleavage turned out to be 0.982.

Consider C38U U52A, for which the self-cleavage worked out at 0.509.

With C38U U52G, the self-cleavage worked out at 0.261.

Take C37G G56A: the self-cleavage came to 0.204.

With C37A C46A, the self-cleavage was 0.179.

Turning to C37A C46G, the self-cleavage came to 0.0923.

For the variant C38A C50U, the self-cleavage turned out to be 0.15.

In the case of C38A C50A, the self-cleavage is 0.0919.

For the variant C37G A47G, the self-cleavage was 0.15.

On to A39C U63G, for which the self-cleavage was found to be 0.122.

In the case of A36C A71G, the self-cleavage is 0.303.

For the variant A39C U60C, the self-cleavage was determined as 0.784.

As to A39C U60G, the self-cleavage worked out at 0.33.

For the variant A39C U60A, the self-cleavage worked out at 0.359.

Consider C37G U58G, for which the self-cleavage came out at 0.136.

For A39C A61G, the self-cleavage stood at 0.131.

For the variant A36U U58G, the self-cleavage worked out at 0.417.

In the case of A36U U58C, the self-cleavage stood at 0.719.

On to C38A C46U, for which the self-cleavage stood at 0.187.

With A39C A64G, the self-cleavage was 0.0974.

Consider A39C A64U, for which the self-cleavage is 0.16.

For the origin of these results see the RNAGym collection of RNA variant scans (doi:10.7554/elife.80360).
